The record followed here is publication PMC12224988, “The MdHB7L–MdICE1L–MdHOS1 Module Fine‐Tunes Apple Cold Response via CBF‐Dependent and CBF‐Independent Pathways”.

This data set concerns the target T1, MdHB7L-HIS (UniProt D9ZJ22 1-236).
T1 sequence: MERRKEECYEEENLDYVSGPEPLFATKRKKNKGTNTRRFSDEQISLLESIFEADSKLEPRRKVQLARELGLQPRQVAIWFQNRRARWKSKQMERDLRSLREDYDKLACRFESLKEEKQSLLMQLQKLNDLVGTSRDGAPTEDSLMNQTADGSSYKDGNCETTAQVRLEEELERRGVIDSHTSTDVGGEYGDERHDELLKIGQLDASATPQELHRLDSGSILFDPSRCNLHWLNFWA
Description: EMSA; Beyotime Chemiluminescent EMSA Kit per manufacturer; buffer, salt, pH and temperature not given. The note with it: protein: recombinant; tags: His (pET28a; BamHI/SalI site primers, no stop codon in reverse primer); chain copies: 2; label: biotin; blunt. (A gel shift assay detects complexes by their altered migration in electrophoresis.)

B1: pMdPRX52-4-HB (dsDNA)
DNA 1: CTTGTCCGTAAATGATTGACATTGGTTTAC
DNA 2: GTAAACCAATGTCAATCATTTACGGACAAG
Turning to B1, the binding result is on record as “binds”.

B2: pMdPAP2-1-HB (dsDNA)
DNA 1: GATGTGTGTTGTAATTAGTTACACGATTCT
DNA 2: AGAATCGTGTAACTAATTACAACACACATC
Regarding B2, the binding result is given as “no binding”.

B3: pMdPRX52-2-HB (dsDNA)
DNA 1: TATTAAATCAGAATTATTAAGAGAAAATAA
DNA 2: TTATTTTCTCTTAATAATTCTGATTTAATA
As to B3, the binding result is recorded as “binds”.

B4: pMdPRX53-3-HB (dsDNA)
DNA 1: TAAGTCTTTGTGTAATTAACAAAACAACGA
DNA 2: TCGTTGTTTTGTTAATTACACAAAGACTTA
As for B4, the binding result was “no binding”.

B5: pMdCBF1-HB-P4 (dsDNA)
DNA 1: GAAATTAAGTACTAATTGTTCAGTACCAAG
DNA 2: CTTGGTACTGAACAATTAGTACTTAATTTC
For B5, the binding result is listed as “binds”.

B6: pMdERDL6-7-1-HB (dsDNA)
DNA 1: GCATTTTATAATTGTTTATTATTTTTAATTAGAAAAAATC
DNA 2: GATTTTTTCTAATTAAAAATAATAAACAATTATAAAATGC
On to B6, for which the binding result is listed as “binds”.

B7: pMdRD26-2-HB (dsDNA)
DNA 1: TCATTAAAGAGATAATTATGAAATAAAATA
DNA 2: TATTTTATTTCATAATTATCTCTTTAATGA
In the case of B7, the binding result is “binds”.

B8: pMdERD5-2-HB (dsDNA)
DNA 1: TCTTTTTAGACCCTAATTATAGGGAAAGGG
DNA 2: CCCTTTCCCTATAATTAGGGTCTAAAAAGA
B8: the binding result is recorded as “binds”.

B9: pMdERD5-1-HB (dsDNA)
DNA 1: GAACTGCCTATATAATTAACAAGCTTCAGG
DNA 2: CCTGAAGCTTGTTAATTATATAGGCAGTTC
With B9, the binding result is “binds”.

B10: pMdERDL6-1-1-HB (dsDNA)
DNA 1: TTAGGATAGTAATTGGTAACTCTCGACTCC
DNA 2: GGAGTCGAGAGTTACCAATTACTATCCTAA
Consider B10, for which the binding result is reported as “binds”.

B11: pMdRD26-4-HB (dsDNA)
DNA 1: ATAAATATAATTACCTGTGAGTTGATTATA
DNA 2: TATAATCAACTCACAGGTAATTATATTTAT
With B11, the binding result was “no binding”.

B12: pMdCBF3-HB-P2 (dsDNA)
DNA 1: CACTGTCGATTTAAATCATTCATACAGAAA
DNA 2: TTTCTGTATGAATGATTTAAATCGACAGTG
Take B12: the binding result is listed as “binds”.

B13: pMdPRX52-3-HB (dsDNA)
DNA 1: CAAATGTAATTAGCATTAATCCCAACTAACTATAAAAATGATTATCCTTG
DNA 2: CAAGGATAATCATTTTTATAGTTAGTTGGGATTAATGCTAATTACATTTG
On to B13, for which the binding result is given as “binds”.

B14: pMdERDL6-7-5-HB (dsDNA)
DNA 1: ATGCAGAATCATTTATCCTTAATTAATCATA
DNA 2: TATGATTAATTAAGGATAAATGATTCTGCAT
Consider B14, for which the binding result is “binds”.

B15: pMdPRX52-1-HB (dsDNA)
DNA 1: GTTAAACCAATTTAATTAATAAGATCTTAT
DNA 2: ATAAGATCTTATTAATTAAATTGGTTTAAC
For B15, the binding result is on record as “binds”.

B16: pMdCBF1-HB-P2 (dsDNA)
DNA 1: CTATTATTATTAATTACTTTTTTCACATAA
DNA 2: TTATGTGAAAAAAGTAATTAATAATAATAG
For B16, the binding result is given as “binds”.

B17: pMdERDL6-7-3-HB (dsDNA)
DNA 1: CTTCATATCTTAATCATTCATCATGTATCG
DNA 2: CGATACATGATGAATGATTAAGATATGAAG
Regarding B17, the binding result is on record as “binds”.

B18: pMdPAP2-2-HB (dsDNA)
DNA 1: GCACCAAGTCCAATTATTGAGCAATTAATG
DNA 2: CATTAATTGCTCAATAATTGGACTTGGTGC
Consider B18, for which the binding result is “binds”.

B19: pMdCBF3-HB-P1 (dsDNA)
DNA 1: AAAAATAAAATGATTAGCCTGGCGCATCTA
DNA 2: TAGATGCGCCAGGCTAATCATTTTATTTTT
Take B19: the binding result is on record as “binds”.

B20: pMdERDL6-7-4-HB (dsDNA)
DNA 1: CTTAAAATTTCTTAATTATCAGTTAACACC
DNA 2: GGTGTTAACTGATAATTAAGAAATTTTAAG
Turning to B20, the binding result was “binds”.

B21: pMdCBF1-HB-P1 (dsDNA)
DNA 1: AAAGCATAGAAATAATTCCAAAACTATTTT
DNA 2: AAAATAGTTTTGGAATTATTTCTATGCTTT
As to B21, the binding result is given as “binds”.

B22: pMdPRX53-1-HB (dsDNA)
DNA 1: AATAGACCTACTAATTGGCTCACATATGCA
DNA 2: TGCATATGTGAGCCAATTAGTAGGTCTATT
For the molecule B22, the binding result is given as “binds”.

B23: pMdERDL6-7-2-HB (dsDNA)
DNA 1: CAATATAATTAATTAAAAATTTTAAACTTTTCAACTAATTATGTTAG
DNA 2: CTAACATAATTAGTTGAAAAGTTTAAAATTTTTAATTAATTATATTG
Consider B23, for which the binding result is reported as “binds”.

B24: pMdCBF1-HB-P3 (dsDNA)
DNA 1: TAGCAACTAATTAAGTCTTCAATAATTTCTAAAAGCA
DNA 2: TGCTTTTAGAAATTATTGAAGACTTAATTAGTTGCTA
In the case of B24, the binding result was “binds”.

B25: pMdRD26-3-HB (dsDNA)
DNA 1: ATAGAAATAAATAATTGACGAGATAAATAG
DNA 2: CTATTTATCTCGTCAATTATTTATTTCTAT
With B25, the binding result is “binds”.

B26: pMdRD26-1-HB (dsDNA)
DNA 1: ATGCGACCATTAATTAAACTTACAAAATGT
DNA 2: ACATTTTGTAAGTTTAATTAATGGTCGCAT
For the molecule B26, the binding result is reported as “binds”.

B27: pMdERD5-4-HB (dsDNA)
DNA 1: TTAAGACTAGCTTAATTGCGAGGATATCAT
DNA 2: ATGATATCCTCGCAATTAAGCTAGTCTTAA
Regarding B27, the binding result was “binds”.

B28: pMdERD5-3-HB (dsDNA)
DNA 1: ATTGTTTGTATTTAATTGTAAATAAAAATA
DNA 2: TATTTTTATTTACAATTAAATACAAACAAT
Take B28: the binding result was “binds”.

B29: pMdPRX53-2-HB (dsDNA)
DNA 1: AATACGCCTCTAATTATTAGGTGCTTTTTG
DNA 2: CAAAAAGCACCTAATAATTAGAGGCGTATT
Regarding B29, the binding result is “binds”.

B30: pMdPRX52-5-HB (dsDNA)
DNA 1: AATTAAGCTAAATCATTAACAATTTTCATT
DNA 2: AATGAAAATTGTTAATGATTTAGCTTAATT
Regarding B30, the binding result is “binds”.
